The source of these data is article doi:10.1101/2021.01.05.425367 (bioRxiv, 2021).

The target in this test is T1, LolB-Strep (E. coli, UniProt P61320 22-207).
T1 sequence (looked up): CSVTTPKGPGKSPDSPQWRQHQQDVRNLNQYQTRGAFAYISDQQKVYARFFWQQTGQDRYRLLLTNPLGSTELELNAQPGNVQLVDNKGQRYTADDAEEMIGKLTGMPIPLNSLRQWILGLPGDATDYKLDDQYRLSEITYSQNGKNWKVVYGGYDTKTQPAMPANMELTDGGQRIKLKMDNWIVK
The test is described as follows: pull-down.

B1: wild-type RcsF (natural protein, E. coli, UniProt P69411 16-134, looked up)
chain: CSMLSRSPVEPVQSTAPQPKAEPAKPKAPRATPVRIYTNAEELVGKPFRDLGEVSGDSCQASNQDSPPSIPTARKRMQINASKMKANAVLLHSCEVTSGTPGCYRQAVCIGSALNITAK
modifications: acylated (lipidated) N-terminal cysteine, the first residue of the mature lipoprotein
In the case of B1, the binding result is “binds”.
